{"source": "patent US20100048482A1", "about": "(Stanford University, published 2010)", "binders": {"B1": {"name": "epsilon protein kinase C (εPKC), endogenous, rat heart (enzyme)", "chain": "MVVFNGLLKIKICEAVSLKPTAWSLRHAVGPRPQTFLLDPYIALNVDDSRIGQTATKQKTNSPAWHDEFVTDVCNGRKIELAVFHDAPIGYDDFVANCTIQFEELLQNGSRHFEDWIDLEPEGKVYVIIDLSGSSGEAPKDNEERVFRERMRPRKRQGAVRRRVHQVNGHKFMATYLRQPTYCSHCRDFIWGVIGKQGYQCQVCTCVVHKRCHELIITKCAGLKKQETPDEVGSQRFSVNMPHKFGIHNYKVPTFCDHCGSLLWGLLRQGLQCKVCKMNVHRRCETNVAPNCGVDARGIAKVLADLGVTPDKITNSGQRRKKLAAGAESPQPASGNSPSEDDRSKSAPTSPCDQELKELENNIRKALSFDNRGEEHRASSSTDGQLASPGENGEVRQGQAKRLGLDEFNFIKVLGKGSFGKVMLAELKGKDEVYAVKVLKKDVILQDDDVDCTMTEKRILALARKHPYLTQLYCCFQTKDRLFFVMEYVNGGDLMFQIQRSRKFDEPRSGFYAAEVTSALMFLHQHGVIYRDLKLDNILLDAEGHSKLADFGMCKEGILNGVTTTTFCGTPDYIAPEILQELEYGPSVDWWALGVLMYEMMAGQPPFEADNEDDLFESILHDDVLYPVWLSKEAVSILKAFMTKNPHKRLGCVAAQNGEDAIKQHPFFKEIDWVLLEQKKMKPPFKPRIKTKRDVNNFDQDFTREEPILTLVDEAIVKQINQEEFKGFSYFGEDLMP", "notes": "Endogenous protein in mitochondrial or cytosolic fractions of Wistar rat hearts, immunoprecipitated from lysate; also called PKCε; epsilon PKC"}}, "biological_target": "heat shock protein 90 (HSP90), endogenous, rat heart (rat, UniProt P82995 2-733, limits assumed)", "experiment": "co-immunoprecipitation and western blot, mitochondria of rat hearts after IR with or without 1 µM ψεHSP90 peptide", "protocol": "200-500 μg of mitochondrial or cytosolic protein was diluted into 1 ml of IP Lysis Buffer (150 mM NaCl, 10 mM Tris-HCl, 5 mM EDTA, 0.1% Triton X-100, pH=7.4, containing Sigma Protease Inhibitor 1 and Sigma Phosphatase Inhibitors 1 and 2). […] 10 μg of Protein A/G Beads (Santa Cruz Biotechnology) were added and the mixture was incubated overnight at 4° C. with inversion mixing. Beads were then centrifuged, washed 3× in IP Lysis Buffer, then re-suspended in sample buffer. Immunoprecipitated proteins were separated on 10% SDS-PAGE gels. […] A beads alone group was also included for each sample set to assess any non-specific protein binding to the beads.", "data": [{"binder": "B1", "values": [{"measurement": "fold increase in co-immunoprecipitation with ψεHSP90 peptide treatment against IR alone", "value": "~4", "unit": "fold"}]}]}
